Experiment [1] deals with T1, APPΔC31 (N-terminal 664 amino acids of APP695) (human, UniProt P05067 18-664).
T1 construct: Used both for the deletion construct and for the product of caspase cleavage of APP at Asp664; also called APPdeltaC31; C-terminal truncated APP
Kind of experiment: co-immunoprecipitation (anti-FLAG M2) from co-transfected 293T cells, western blot with 5A3/1G7. For orientation: Immunoblotting shows a protein as a band on a membrane.

Experiment [2] concerns the target T2, Wild-type human APP695 (β-amyloid precursor protein) (human, UniProt P05067-4 18-695).
T2 construct: also called full-length APP
Briefly: co-immunoprecipitation with anti-FLAG M2 from co-transfected 293T cells, densitometry of the APP band.

For experiment [3], the target named is T2, Wild-type human APP695 (β-amyloid …). Briefly: co-immunoprecipitation with anti-FLAG M2 from co-transfected 293T cells, western blot for APP with 5A3/1G7.

B1: FLAG-tagged catalytic mutant caspase-8 (C360A) (enzyme, UniProt Q14790 1-479, looked up)
chain: MDFSRNLYDIGEQLDSEDLASLKFLSLDYIPQRKQEPIKDALMLFQRLQEKRMLEESNLSFLKELLFRINRLDLLITYLNTRKEEMERELQTPGRAQISAYRVMLYQISEEVSRSELRSFKFLLQEEISKCKLDDDMNLLDIFIEMEKRVILGEGKLDILKRVCAQINKSLLKIINDYEEFSKERSSSLEGSPDEFSNGEELCGVMTISDSPREQDSESQTLDKVYQMKSKPRGYCLIINNHNFAKAREKVPKLHSIRDRNGTHLDAGALTTTFEELHFEIKPHDDCTVEQIYEILKIYQLMDHSNMDCFICCILSHGDKGIIYGTDGQEAPIYELTSQFTGLKCPSLAGKPKVFFIQAAQGDNYQKGIPVETDSEEQPYLEMDLSSPQTRYIPDEADFLLGMATVNNCVSYRNPAEGTWYIQSLCQSLRERCPRGDDILTILTEVNYEVSNKDDKKNMGKQMPQPTFTLRKKLVFPSD
notes: Printed as 'caspase-S(C360A)', read as caspase-8; FLAG tag present; also called C8; caspase-S(C360A)
Consider B1, for which the binding result in experiment [1] is reported as “no binding”. Moreover, the “intensity relative to the other caspases tested” value in experiment [2] was approximately 200%. The “quantitative densitometry intensity of co-immunoprecipitated APP” value (“quantitative densitometry intensity” below) in experiment [3] was found to be 2.2.

B2: FLAG-tagged catalytic mutant caspase-6 (C163A) (enzyme, UniProt P55212 1-293, looked up)
chain: MSSASGLRRGHPAGGEENMTETDAFYKREMFDPAEKYKMDHRRRGIALIFNHERFFWHLTLPERRGTCADRDNLTRRFSDLGFEVKCFNDLKAEELLLKIHEVSTVSHADADCFVCVFLSHGEGNHIYAYDAKIEIQTLTGLFKGDKCHSLVGKPKIFIIQAARGNQHDVPVIPLDVVDNQTEKLDTNITEVDAASVYTLPAGADFLMCYSVAEGYYSHRETVNGSWYIQDLCEMLGKYGSSLEFTELLTLVNRKVSQRRVDFCKDPSAIGKKQVPCFASMLTKKLHFFPKSN
notes: FLAG tag present; also called C6
Regarding B2, in experiment [3], the “quantitative densitometry intensity” value stood at 1.2.

B3: FLAG-tagged catalytic mutant caspase-7 (C186A) (enzyme, UniProt P55210 1-303, looked up)
chain: MADDQGCIEEQGVEDSANEDSVDAKPDRSSFVPSLFSKKKKNVTMRSIKTTRDRVPTYQYNMNFEKLGKCIIINNKNFDKVTGMGVRNGTDKDAEALFKCFRSLGFDVIVYNDCSCAKMQDLLKKASEEDHTNAACFACILLSHGEENVIYGKDGVTPIKDLTAHFRGDRCKTLLEKPKLFFIQAARGTELDDGIQADSGPINDTDANPRYKIPVEADFLFAYSTVPGYYSWRSPGRGSWFVQALCSILEEHGKDLEIMQILTRVNDRVARHFESQSDDPHFHEKKQIPCVVSMLTKELYFSQ
notes: FLAG tag present; also called C7
On to B3, for which the “quantitative densitometry intensity” value in experiment [3] is 1.

B4: FLAG-tagged catalytic mutant caspase-9 (C287A) (enzyme, UniProt P55211 1-416, looked up)
chain: MDEADRRLLRRCRLRLVEELQVDQLWDALLSRELFRPHMIEDIQRAGSGSRRDQARQLIIDLETRGSQALPLFISCLEDTGQDMLASFLRTNRQAAKLSKPTLENLTPVVLRPEIRKPEVLRPETPRPVDIGSGGFGDVGALESLRGNADLAYILSMEPCGHCLIINNVNFCRESGLRTRTGSNIDCEKLRRRFSSLHFMVEVKGDLTAKKMVLALLELAQQDHGALDCCVVVILSHGCQASHLQFPGAVYGTDGCPVSVEKIVNIFNGTSCPSLGGKPKLFFIQAAGGEQKDHGFEVASTSPEDESPGSNPEPDATPFQEGLRTFDQLDAISSLPTPSDIFVSYSTFPGFVSWRDPKSGSWYVETLDDIFEQWAHSEDLQSLLLRVANAVSVKGIYKQMPGCFNFLRKKLFFKTS
notes: FLAG tag present; also called C9
As to B4, in experiment [3], the “quantitative densitometry intensity” value is 1.1.

(Values after patent publication US20110104715A1 (published 2011).)
